The values below are quoted from earlier work in paper PMC3312455.

Test in all cases: SPR
Series [1] addresses FGFR1-IIIc ECD (Homo sapiens) (UniProt P11362).
For series [2], the target named is FGFR2-IIIb D2-D3 (Homo sapiens) (UniProt P21802).
Series [3] concerns the target FGFR2-IIIb ECD (Homo sapiens) (UniProt P21802).
In series [4] the target is FGFR3-IIIc D1-D3 (Homo sapiens) (UniProt P22607).
Series [5] has as its target FGFR3-IIIc D2-D3 (Homo sapiens) (UniProt P22607).
Series [6] concerns the target αvβ3 integrin receptor (Homo sapiens) (UniProt P06756).
The target of series [7] is FGFR1-IIIc D1-D3 (Homo sapiens) (UniProt P11362).
Series [8] concerns the target FGFR1-IIIc D2-D3 (Homo sapiens) (UniProt P11362).
The target in series [9] is agrin (UniProt O00468).
Series [10] addresses c-MET ECD (Homo sapiens) (UniProt P08581).
Series [11] concerns the target PDGFRα ECD (Homo sapiens) (UniProt P16234).
For series [12], the target named is PDGFRβ ECD (Homo sapiens) (UniProt P09619).
The target of series [13] is Neuropilin-1 ECD (Homo sapiens) (UniProt O14786).
Series [14] deals with VEGFR1/Flt ECD (Homo sapiens) (UniProt P17948).

Values joined by “and” are separate entries in the source; they are usually repeats but may differ in a detail not shown here. Identical values can stand only once.

Sequence of FGFR2-IIIb ECD (Homo sapiens) (P21802 22-377): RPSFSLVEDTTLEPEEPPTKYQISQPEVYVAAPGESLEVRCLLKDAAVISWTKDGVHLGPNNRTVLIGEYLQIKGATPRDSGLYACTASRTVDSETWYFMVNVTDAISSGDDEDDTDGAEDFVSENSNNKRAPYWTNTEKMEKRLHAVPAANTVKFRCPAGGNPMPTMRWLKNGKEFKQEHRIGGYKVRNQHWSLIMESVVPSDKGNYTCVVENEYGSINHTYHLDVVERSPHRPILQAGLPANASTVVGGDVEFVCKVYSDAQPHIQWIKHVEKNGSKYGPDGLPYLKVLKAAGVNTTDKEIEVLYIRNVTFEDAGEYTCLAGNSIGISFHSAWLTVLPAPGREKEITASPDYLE
Sequence of FGF1 (P05230 16-155): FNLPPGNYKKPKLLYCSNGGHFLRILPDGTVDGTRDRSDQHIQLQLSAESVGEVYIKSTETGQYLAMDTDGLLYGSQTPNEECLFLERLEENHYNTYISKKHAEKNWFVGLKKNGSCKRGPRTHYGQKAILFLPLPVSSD
Sequence of VEGF-A165 (P15692 whole entry): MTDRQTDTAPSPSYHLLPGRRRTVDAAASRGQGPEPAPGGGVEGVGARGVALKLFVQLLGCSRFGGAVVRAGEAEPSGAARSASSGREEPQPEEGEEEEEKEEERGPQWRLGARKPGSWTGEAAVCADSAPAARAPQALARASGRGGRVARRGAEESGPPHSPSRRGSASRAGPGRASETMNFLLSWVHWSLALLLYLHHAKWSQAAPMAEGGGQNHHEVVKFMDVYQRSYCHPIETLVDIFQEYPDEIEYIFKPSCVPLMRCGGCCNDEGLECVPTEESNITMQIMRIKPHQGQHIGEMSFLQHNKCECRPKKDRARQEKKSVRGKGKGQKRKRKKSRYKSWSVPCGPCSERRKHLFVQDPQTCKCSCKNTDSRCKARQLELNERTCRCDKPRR
Sequence of FGF2 (P09038 143-288): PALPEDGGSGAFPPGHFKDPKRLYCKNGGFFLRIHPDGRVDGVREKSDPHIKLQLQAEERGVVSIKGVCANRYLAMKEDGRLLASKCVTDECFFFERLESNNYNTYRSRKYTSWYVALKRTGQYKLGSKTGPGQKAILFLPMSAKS
Sequence of FGFR1-IIIc D2-D3 (Homo sapiens) (P11362 142-365): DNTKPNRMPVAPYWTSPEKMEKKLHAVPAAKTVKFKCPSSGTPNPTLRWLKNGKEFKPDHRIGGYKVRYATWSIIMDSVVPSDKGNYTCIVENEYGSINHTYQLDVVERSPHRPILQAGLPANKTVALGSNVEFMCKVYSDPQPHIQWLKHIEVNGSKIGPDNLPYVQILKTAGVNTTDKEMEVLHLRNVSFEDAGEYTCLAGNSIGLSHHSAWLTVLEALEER
Sequence of PDGFRα ECD (Homo sapiens) (P16234 24-528): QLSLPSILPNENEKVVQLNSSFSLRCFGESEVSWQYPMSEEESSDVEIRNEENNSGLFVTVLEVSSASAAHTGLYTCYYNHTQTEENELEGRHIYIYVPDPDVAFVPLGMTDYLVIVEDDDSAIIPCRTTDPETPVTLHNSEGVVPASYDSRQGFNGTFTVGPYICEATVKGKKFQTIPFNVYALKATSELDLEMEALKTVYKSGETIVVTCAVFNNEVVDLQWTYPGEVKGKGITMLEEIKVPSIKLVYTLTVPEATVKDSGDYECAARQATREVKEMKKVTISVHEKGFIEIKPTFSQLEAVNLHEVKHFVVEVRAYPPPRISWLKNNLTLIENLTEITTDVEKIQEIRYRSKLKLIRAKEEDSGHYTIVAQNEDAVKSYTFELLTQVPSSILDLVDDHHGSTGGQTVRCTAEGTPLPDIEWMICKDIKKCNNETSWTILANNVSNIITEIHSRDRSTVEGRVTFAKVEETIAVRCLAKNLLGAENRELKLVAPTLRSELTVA
Sequence of FGF4 (P08620 31-206): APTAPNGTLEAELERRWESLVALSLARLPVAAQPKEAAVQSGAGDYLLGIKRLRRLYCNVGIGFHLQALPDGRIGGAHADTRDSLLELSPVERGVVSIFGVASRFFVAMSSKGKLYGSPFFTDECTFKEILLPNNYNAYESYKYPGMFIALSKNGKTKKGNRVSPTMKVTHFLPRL
Sequence of VEGFR1/Flt ECD (Homo sapiens) (P17948 27-758): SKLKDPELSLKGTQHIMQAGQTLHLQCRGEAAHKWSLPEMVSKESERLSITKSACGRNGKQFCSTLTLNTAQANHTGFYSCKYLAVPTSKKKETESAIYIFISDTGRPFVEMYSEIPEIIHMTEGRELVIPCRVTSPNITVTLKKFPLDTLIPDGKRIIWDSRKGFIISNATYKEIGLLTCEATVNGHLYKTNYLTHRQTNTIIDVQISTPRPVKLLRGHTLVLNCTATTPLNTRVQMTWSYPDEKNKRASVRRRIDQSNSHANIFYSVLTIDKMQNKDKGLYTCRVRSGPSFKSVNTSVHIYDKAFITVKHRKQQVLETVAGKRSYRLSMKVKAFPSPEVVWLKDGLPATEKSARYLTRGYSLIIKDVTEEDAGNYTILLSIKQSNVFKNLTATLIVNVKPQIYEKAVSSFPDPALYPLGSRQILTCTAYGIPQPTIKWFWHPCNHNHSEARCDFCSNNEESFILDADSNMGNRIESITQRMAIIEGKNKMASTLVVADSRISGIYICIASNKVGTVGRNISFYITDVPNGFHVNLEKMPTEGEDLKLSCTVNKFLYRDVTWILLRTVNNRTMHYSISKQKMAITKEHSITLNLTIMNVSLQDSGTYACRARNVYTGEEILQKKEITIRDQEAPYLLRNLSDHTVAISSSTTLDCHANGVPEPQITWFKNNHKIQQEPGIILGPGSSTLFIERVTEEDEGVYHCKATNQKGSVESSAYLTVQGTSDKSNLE
Sequence of c-MET ECD (Homo sapiens) (P08581 25-932): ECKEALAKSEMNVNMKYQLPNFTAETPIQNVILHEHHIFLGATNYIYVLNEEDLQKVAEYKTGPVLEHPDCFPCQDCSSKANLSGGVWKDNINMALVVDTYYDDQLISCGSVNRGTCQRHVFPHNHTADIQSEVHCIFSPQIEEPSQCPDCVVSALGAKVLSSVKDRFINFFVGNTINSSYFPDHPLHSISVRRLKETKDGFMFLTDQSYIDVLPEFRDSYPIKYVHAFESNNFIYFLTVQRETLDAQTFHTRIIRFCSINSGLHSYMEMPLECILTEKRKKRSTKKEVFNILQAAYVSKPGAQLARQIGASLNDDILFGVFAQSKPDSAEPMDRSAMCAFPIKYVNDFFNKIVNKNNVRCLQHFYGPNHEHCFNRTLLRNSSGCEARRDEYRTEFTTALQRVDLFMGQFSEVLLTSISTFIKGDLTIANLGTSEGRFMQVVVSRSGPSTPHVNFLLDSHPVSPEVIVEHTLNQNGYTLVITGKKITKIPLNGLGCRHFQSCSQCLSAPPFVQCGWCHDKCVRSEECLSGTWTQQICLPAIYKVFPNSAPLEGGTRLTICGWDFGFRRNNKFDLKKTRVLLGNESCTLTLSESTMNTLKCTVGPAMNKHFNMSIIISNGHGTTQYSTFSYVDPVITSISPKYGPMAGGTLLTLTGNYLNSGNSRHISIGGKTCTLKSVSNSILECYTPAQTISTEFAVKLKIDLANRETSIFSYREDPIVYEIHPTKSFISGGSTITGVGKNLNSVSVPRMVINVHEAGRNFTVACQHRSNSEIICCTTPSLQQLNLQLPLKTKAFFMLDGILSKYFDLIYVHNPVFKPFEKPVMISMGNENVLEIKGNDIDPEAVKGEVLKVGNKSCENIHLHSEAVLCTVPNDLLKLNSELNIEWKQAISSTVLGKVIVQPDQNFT
Sequence of HGF (P14210 32-494): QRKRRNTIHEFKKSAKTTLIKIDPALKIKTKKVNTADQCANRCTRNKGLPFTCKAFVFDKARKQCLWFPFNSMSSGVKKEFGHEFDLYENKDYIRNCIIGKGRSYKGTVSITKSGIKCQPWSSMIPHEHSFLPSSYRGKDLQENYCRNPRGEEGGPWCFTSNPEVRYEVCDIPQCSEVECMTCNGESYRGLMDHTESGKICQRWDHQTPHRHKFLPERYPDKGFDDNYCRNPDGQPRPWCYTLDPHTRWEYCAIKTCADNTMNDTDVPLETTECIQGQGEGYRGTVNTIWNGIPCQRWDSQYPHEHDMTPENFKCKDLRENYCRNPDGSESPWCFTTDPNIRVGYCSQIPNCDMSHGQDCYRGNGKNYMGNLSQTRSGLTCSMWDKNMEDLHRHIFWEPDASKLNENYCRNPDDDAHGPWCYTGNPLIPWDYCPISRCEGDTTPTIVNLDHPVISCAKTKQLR
Sequence of HGF (P14210 495-728): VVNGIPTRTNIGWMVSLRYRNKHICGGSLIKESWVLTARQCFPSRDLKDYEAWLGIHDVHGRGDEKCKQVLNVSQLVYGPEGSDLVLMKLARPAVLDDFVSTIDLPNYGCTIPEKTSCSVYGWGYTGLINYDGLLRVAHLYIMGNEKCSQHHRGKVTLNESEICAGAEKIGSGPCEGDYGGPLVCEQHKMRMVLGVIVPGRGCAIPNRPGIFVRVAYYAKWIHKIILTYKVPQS
Sequence of HIV-Tat (P04326 whole entry): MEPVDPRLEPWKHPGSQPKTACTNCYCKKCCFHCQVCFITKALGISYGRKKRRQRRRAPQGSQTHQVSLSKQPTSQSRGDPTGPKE
Sequence of FGFR1-IIIc D1-D3 (Homo sapiens) (P11362 22-365): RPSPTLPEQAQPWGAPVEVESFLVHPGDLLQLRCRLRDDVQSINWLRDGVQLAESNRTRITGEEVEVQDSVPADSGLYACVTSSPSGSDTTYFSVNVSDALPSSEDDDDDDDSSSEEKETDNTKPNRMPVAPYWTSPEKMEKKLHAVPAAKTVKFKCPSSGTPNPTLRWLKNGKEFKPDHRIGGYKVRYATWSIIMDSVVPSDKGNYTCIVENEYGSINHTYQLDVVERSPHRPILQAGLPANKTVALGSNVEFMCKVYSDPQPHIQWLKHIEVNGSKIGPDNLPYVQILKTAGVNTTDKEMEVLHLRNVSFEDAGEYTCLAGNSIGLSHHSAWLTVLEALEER
Sequence of PDGF-BB (P01127 82-190): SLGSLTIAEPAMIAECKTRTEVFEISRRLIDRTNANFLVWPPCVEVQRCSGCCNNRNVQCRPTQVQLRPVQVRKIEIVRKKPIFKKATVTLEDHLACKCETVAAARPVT

The Kd is the constant that tells how readily two partners part at equilibrium. Turning to FGF1 (from UniProt P05230), the dissociation constant (Kd) in [1] is 35 nM; in [2], 59.6 nM; in [3] it was 0.8 nM; in series [4] it was 916 nM; in series [5], 230 nM; in series [6], 1100 nM.

As to FGF2 (from UniProt P09038), the Kd in [7] is 99 nM; in [8] it was 62 nM; in series [3] it was 0.5 nM; in series [9] it was 2.5 nM.

Consider FGF4 (from UniProt P08620), for which the figures for the Kd in [8] and in [3] were 165 nM and 0.42 nM, respectively.

For HGF (from UniProt P14210), the Kd in [10] was 50 nM and 90 nM.

For the substance HIV-Tat (from UniProt P04326), in [6], the dissociation constant Kd was 32 nM.

For the substance PDGF-AA (from UniProt P04085), the equilibrium dissociation constant (Kd) in series [11] was 13.4 nM; in series [12] it was 453 nM.

As to PDGF-BB (from UniProt P01127), in series [11], the dissociation constant Kd was 150 nM.

VEGF-A165 (from UniProt P15692): the equilibrium dissociation constant (Kd) was 2000 nM in series [13]; 0.007 nM and 0.03 nM in [14].
